Test results reported in PMC4368798, “Protein-Binding RNA Aptamers Affect Molecular Interactions Distantly from Their Binding Sites” (PLoS ONE, 2015).

Molecular target: T1, Human uPAR (uPA receptor), recombinant (human, UniProt Q03405 23-305)
T1 construct: probably a soluble form without the GPI anchor (surmise)
Assay: SPR; uPAR coupled to the sensor surface (1000 RU, 15 ug/mL in 10 mM Na acetate pH 4.5); 4 nM purified uPA variant (pro-uPA, ATF or GFD) passed over with or without RNA aptamer; bound amount after 80 s injection
Details: both partners purified

T1 sequence (Q03405 23-305): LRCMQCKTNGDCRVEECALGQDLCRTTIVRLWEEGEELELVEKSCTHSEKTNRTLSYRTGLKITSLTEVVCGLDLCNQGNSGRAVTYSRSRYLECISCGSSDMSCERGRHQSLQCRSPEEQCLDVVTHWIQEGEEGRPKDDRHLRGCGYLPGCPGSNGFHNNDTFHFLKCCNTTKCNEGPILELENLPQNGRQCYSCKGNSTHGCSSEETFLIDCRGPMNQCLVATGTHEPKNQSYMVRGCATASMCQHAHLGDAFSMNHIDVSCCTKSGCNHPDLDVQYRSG

- binding result: binds
B1: GFD^4-43 domain of uPA (domain or fragment, human, UniProt P00749 24-63, looked up)
chain: LHQVPSNCDCLNGGTCVSNKYFSNIHWCNCPKKFGGQHCE
notes: human uPA epidermal growth factor-like domain, residues 4-43; numbers count on: the mature protein; also called growth factor domain; source: excised from recombinant pro-uPA by Glu-C digestion, purified by size exclusion chromatography
